# Values of other authors, collected in publication PMC4340704.
# Target: Cys106 (UniProt position 106, LIAAICAGPTA)
# Conditions: reduced Cys106 thiol/thiolate implied; otherwise not stated
substance,measurement,value
DJ-1 (Parkinson disease protein 7) (Homo sapiens),pKa,5.4
